Data set [1] deals with the molecule itself. As to the kind of experiment: SEC-MALS + other: SEC-SAXS; rArcFL-7A alone and with E5, C11 or both; 20 mM Tris pH 7.5, 150 mM NaCl, 0.5 mM TCEP; 1:1.3 protein-to-nanobody ratio for SAXS.
The target in data set [2] is T1, Arc N-lobe (Arc-NL, Arc 207-277) (human, UniProt Q7LC44).
T1 construct: Activity-regulated cytoskeleton-associated protein (Arc), N-lobe, residues 207-277; identical for human, rat and mouse Arc-NL; construct His6-MBP-TEV-NL in pETMBP_1a; 8.9 kDa as printed; also called human Arc N-lobe; source: E. coli BL21(DE3), purified (Ni-NTA, tag cleavage, reverse Ni-NTA, SEC); not shown: His6, N-terminal, cleaved; MBP, N-terminal, cleaved
As to the kind of experiment: ITC; displacement assay: 100 μM E5/H11 (titrant) into 10 μM Arc-NL saturated with 100 μM P1, TBS, 20 °C; apparent constants, one replicate. To be noted: both partners purified.

Data set [3] addresses T1, Arc N-lobe (Arc-NL, Arc 207-277). As to the kind of experiment: ITC; 15 μM E5/H11 (titrant) into 1.5 μM Arc-NL (titrate), TBS (20 mM Tris-HCl pH 7.5, 150 mM NaCl), 20 °C, 1:1 binding model, four replicates. To be noted: both partners purified.
In data set [4] the target is T2, Arc N-lobe (Arc-NL, Arc 207-277) (human, UniProt Q7LC44 207-277).
T2 construct: Activity-regulated cytoskeleton-associated protein (Arc), N-lobe, residues 207-277; identical for human, rat and mouse Arc-NL; construct His6-MBP-TEV-NL in pETMBP_1a; 8.9 kDa as printed; also called human Arc N-lobe; source: E. coli BL21(DE3), purified (Ni-NTA, tag cleavage, reverse Ni-NTA, SEC); not shown: His6, N-terminal, cleaved; MBP, N-terminal, cleaved
T2 sequence (looked up): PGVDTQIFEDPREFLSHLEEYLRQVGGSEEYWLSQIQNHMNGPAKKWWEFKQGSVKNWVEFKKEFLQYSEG
As to the kind of experiment: ITC; 2 mM P1 (titrant) into 200 μM Arc-NL (titrate), TBS, 20 °C, three sequential titrations concatenated, 1:1 binding model, one replicate. To be noted: both partners purified. In general terms: Isothermal titration calorimetry measures the heat released or taken up as one component is titrated into another.

In data set [5] the target is T3, full-length rat Arc with a poly-Ala mutation in residues 113-119 (rArcFL-7A) (rat, UniProt Q63053, poly-Ala mutation in residues 113-119).
T3 construct: Activity-regulated cytoskeleton-associated protein (Arc), rat, full length, residues 113-119 replaced by alanines; expressed with an N-terminal His6-MBP fusion in pHMGWA; also called flArc dimeric mutant; dimeric full-length Arc; not shown: His6, N-terminal, cleaved; MBP, N-terminal, cleaved
As to the kind of experiment: SEC-MALS + other: SEC-SAXS; rArcFL-7A alone and with E5, C11 or both; 20 mM Tris pH 7.5, 150 mM NaCl, 0.5 mM TCEP; 1:1.3 protein-to-nanobody ratio for SAXS. To be noted: both partners purified. On the technique in general: Size exclusion chromatography separates by hydrodynamic size, large species first.

Data on 4 molecules can be found in article PMC11057775, “Structural characterization of two nanobodies targeting the ligand-binding pocket of human Arc” (PLOS ONE, 2024).

Where no end group is shown, it is not given here.

As usually defined, the stoichiometry N is the number of molecules, sites or subunits per partner or assembly. The Kd is the equilibrium constant for the complex coming apart.

B1: full-length rat Arc with a poly-Ala mutation in residues 113-119 (rArcFL-7A) (natural protein, UniProt Q63053 1-396, looked up)
chain: MELDHMTTGGLHAYPAPRGGPAAKPNVILQIGKCRAEMLEHVRRTHRHLLTEVSKQVERELKGLHRSVGKLENNLDGYVPTGDSQRWKKSIKACLCRCQETIANLERWVKREAAAAAAAFYRLERWADRLESMGGKYPVGSEPARHTVSVGVGGPEPYCQEADGYDYTVSPYAITPPPAAGELPEQESVGAQQYQSWVPGEDGQPSPGVDTQIFEDPREFLSHLEEYLRQVGGSEEYWLSQIQNHMNGPAKKWWEFKQGSVKNWVEFKKEFLQYSEGTLSREAIQRELDLPQKQGEPLDQFLWRKRDLYQTLYVDAEEEEIIQYVVGTLQPKFKRFLRHPLPKTLEQLIQRGMEVQDGLEQAAEPSVTPLPTEDETEALTPALTSESVASDRTQPE
notes: Activity-regulated cytoskeleton-associated protein (Arc), rat, full length, residues 113-119 replaced by alanines; expressed with an N-terminal His6-MBP fusion in pHMGWA; also called flArc dimeric mutant; dimeric full-length Arc; not shown: His6, N-terminal, cleaved; MBP, N-terminal, cleaved
With B1, in data set [1], the “stoichiometry N” value came out at 2.

B2: anti-Arc nanobody H11 (VHH)
VHH: EVQLLESGGGLVQAGDSLRLSCAASGRTFSAYAMGWFRQAPGKEREFVAAISWSGNSTYYADSVKGRFTISRDNAKNTVYLQMNSLKPEDTAIYYCAARKPMYRVDISKGQNYDYWGQGTQVTVSS
notes: alpaca nanobody; 14.1 kDa as printed; provided by Nanotag Biotechnologies in the vector pNT1433 (His6-TEV-H11); CDR3 holds a PxY motif; source: E. coli BL21(DE3), purified (Ni-NTA, tag cleavage, reverse Ni-NTA, SEC); not shown: His6, N-terminal, cleaved
Consider B2, for which, in data set [2], the “dH-App (Arc-NL saturated with P1)” value was -10.3 kcal/mol. In addition, in data set [3], the dissociation constant Kd came to 1.14 nM and the dH was -23.5 kcal/mol.

B3: FITC-labelled, TAT-tagged TARPγ2 peptide (forward peptide P1) (peptide)
peptide: YGRKKRRQRRRGGRIPSYRYR
modifications: also: FITC label, position not given here
notes: stretch of the transmembrane AMPAR regulatory protein γ2 (TARPγ2, stargazin); the split into TAT, linker and TARPγ2 stretch is mine; also called TARPγ2-derived peptide; source: synthetic peptide, bought: GenScript Biotech
Take B3: in data set [4], the affinity, expressed as Kd, was 5.31 µM and the dH is -14.9 kcal/mol.

B4: anti-Arc nanobody E5 (VHH)
VHH: EVQLQESGGGLVQAGGSLRLSCAASGSIFSGNAMGWYRQAPGKQREVVAVISAGNSSNYVDSVKGRFTISRDNAKNTVYLQMNSLKPEDTAVYYCNVVKRGPQWGMEWGKGTLVTVSS
notes: alpaca nanobody; 12.8 kDa as printed; provided by Nanotag Biotechnologies in the vector pNT1433 (His6-TEV-E5); CDR3 holds a PxW motif; source: E. coli BL21(DE3), purified (Ni-NTA, tag cleavage, reverse Ni-NTA, SEC); not shown: His6, N-terminal, cleaved
B4: in data set [5], the “stoichiometry Arc:E5:C11 of the ternary complex” value is 1 E5 per Arc chain (2 Arc : 2 E5 : 2 C11) and the “stoichiometry N” value was 1 E5 per Arc chain (2 E5 : 2 Arc). Also, the “dH-App (Arc-NL saturated with P1)” value in data set [2] is -12 kcal/mol. In data set [3], binding was put at a Kd of 0.99 nM and the dH is -23.2 kcal/mol.
